Assay results reported in paper PMC12423496.

Molecular target: T1, sHdrR-trunc (Hyphomicrobium denitrificans XT) (UniProt D8JT17)
T1 sequence: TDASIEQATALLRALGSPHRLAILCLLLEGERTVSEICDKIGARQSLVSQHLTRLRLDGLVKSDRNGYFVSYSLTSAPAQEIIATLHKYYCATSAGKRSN
Test: EMSA
Details: 10 mM Tris-HCl, 50 mM KCl, 1 mM DTT, pH 8.0 (1x of 10x buffer), about 7% glycerol; 20 min RT then 30 min at 30 C with 17 nM DNA; 6% native PAGE, 0.25x TBE, 4 C

Sequence | binding
TCGACAGCTTGCGGAAATCCGCAATCGAGATCGAAGCCATCGATCGTATTCGAATAGCACGTTCAGCTTCTGCGGAAGCGAACAACGCAACCGGCGCCAAGAGATAAATCTACATCGATCGTCGCGCCGGATGCGTTCACGTTGCCAAGGAATTCCTCACCGGCGGAGCCGTGGAATT (double strand) | no binding
TGCCACCTCCCCGATATGCGTGGCTTTTGTTGTTTTGCCACTTCAGTTCTTGTGTAACTTCCTCTTTAGAACCAGTCAATATTACATTCGCATGTTTGAATATTCCATTTTTCTATATGTTCATCGAATTGGAAAAGTTATTCAAATATATCGCGATCGATTGATCGGCGAAGTC (double strand) [upstream of dsrE3C] | binds
GGGTCACCAAATTCTGCAGGTCTCAATGCGAATGCGAGGCTGCTCCAGCTAGACGAAAAACAAGGAACGTTGCAATAGATAATTCACATATGATAATTTTCATATGTGTTATAGGATGAACGTTATCGCAGCTTCCGGGAGAGATGGCGTGAT (double strand) [soxA-soxY intergenic region] | binds
CGGCCCTCTGAGAAAAGACGCACACGTCGCGCCAAAAACATATGAACATTCGCATGATGGAATATAACAGCCCTGCCGATCGCACAAGGCTCGCTTTAAACGCGGACGCGTCTTCGCAGCGCACACGCATGCGCTGGACGTCCGATCATGTGAAAATTGGGCTGAAGACTCGCTCTA (double strand) [upstream of lipS1] | binds
